Assay results as given in the supplement of paper PMC9112550, “Optimization of the antimicrobial peptide Bac7 by deep mutational scanning” (BMC Biology, 2022).

These sequences were tested on Escherichia coli TOP10 (assay: shrunken log2 fold change of peptide-encoding DNA abundance (4.5 h post-induction vs induction); higher = less antimicrobial activity (less host growth inhibition)). Settings: time post-induction: 4.5 h; library: site-saturation at positions 5, 18, 19, 20.
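Further: peptides expressed intracellularly from a pBAD plasmid library in pooled LB shake-flask culture, induced with 0.3% L-arabinose, DNA abundance read by NGS, three biological replicates, DESeq2 with apeglm shrinkage.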

Sequence | shrunken log2 fold change
RRIRWRPPRLPRPRPRPSKEPRP | -0.267
RRIRHRPPRLPRPRPRPHNSPRP | -0.692
RRIRKRPPRLPRPRPRPINVPRP | 0.095
RRIRQRPPRLPRPRPRPRLDPRP | 0.205
RRIRNRPPRLPRPRPRPSQVPRP | -0.0797
RRIRKRPPRLPRPRPRPMAQPRP | -0.0932
RRIRWRPPRLPRPRPRPGTPPRP | 0.356
RRIRFRPPRLPRPRPRPRDEPRP | 0.278
RRIRIRPPRLPRPRPRPFWWPRP | 0.0783
RRIRWRPPRLPRPRPRPPATPRP | 1.06
RRIRNRPPRLPRPRPRPHRLPRP | -0.00303
RRIRARPPRLPRPRPRPVDLPRP | 0.174
RRIRFRPPRLPRPRPRPYYSPRP | -0.228
RRIRVRPPRLPRPRPRPPADPRP | 0.565
RRIRNRPPRLPRPRPRPRWLPRP | 0.558
RRIRCRPPRLPRPRPRPRYLPRP | -0.799
RRIRMRPPRLPRPRPRPFIVPRP | -0.414
RRIRVRPPRLPRPRPRPRCQPRP | 0.0744
RRIRTRPPRLPRPRPRPYGCPRP | -0.00664
RRIRKRPPRLPRPRPRPWKRPRP | 0.024
RRIRDRPPRLPRPRPRPWWYPRP | -0.738
RRIRIRPPRLPRPRPRPALQPRP | -0.011
RRIRERPPRLPRPRPRPQHDPRP | -0.265
RRIRERPPRLPRPRPRPDMHPRP | -0.0138
RRIRERPPRLPRPRPRPGTHPRP | -0.394

Sequence | shrunken log2 fold change
RRIRGRPPRLPRPRPRPMDLPRP | 0.241
RRIRWRPPRLPRPRPRPAPDPRP | 1.14
RRIRTRPPRLPRPRPRPYMMPRP | 0.0264
RRIRNRPPRLPRPRPRPKALPRP | 0.0983
RRIRERPPRLPRPRPRPHWMPRP | -0.157
RRIRLRPPRLPRPRPRPATVPRP | -0.138
RRIRKRPPRLPRPRPRPQTSPRP | -0.122
RRIRTRPPRLPRPRPRPTNTPRP | -0.536
RRIRGRPPRLPRPRPRPTSPPRP | 0.491
RRIRNRPPRLPRPRPRPVYCPRP | -0.688
RRIRYRPPRLPRPRPRPQGQPRP | -0.262
RRIRCRPPRLPRPRPRPVNCPRP | -0.0215
RRIRARPPRLPRPRPRPLQPPRP | 0.583
RRIRMRPPRLPRPRPRPAWSPRP | 0.44
RRIRFRPPRLPRPRPRPTQVPRP | -0.284
RRIRWRPPRLPRPRPRPMGCPRP | 0.117
RRIRERPPRLPRPRPRPFRTPRP | -0.11
RRIRKRPPRLPRPRPRPKPFPRP | 0.611
RRIRMRPPRLPRPRPRPEDLPRP | 4.64
RRIRPRPPRLPRPRPRPWYCPRP | -0.111
RRIRTRPPRLPRPRPRPANAPRP | -0.0933
RRIRVRPPRLPRPRPRPEVKPRP | 0.0366
RRIRYRPPRLPRPRPRPYEYPRP | -0.095
RRIRCRPPRLPRPRPRPGYYPRP | -0.281
RRIRFRPPRLPRPRPRPAEPPRP | 0.137

Sequence | shrunken log2 fold change
RRIRARPPRLPRPRPRPVVVPRP | 0.652
RRIRGRPPRLPRPRPRPMEFPRP | 0.0673
RRIRPRPPRLPRPRPRPNRNPRP | -0.352
RRIRGRPPRLPRPRPRPFDGPRP | 0.366
RRIRIRPPRLPRPRPRPPMQPRP | -0.193
RRIRERPPRLPRPRPRPKKKPRP | -0.0784
RRIRVRPPRLPRPRPRPHWFPRP | -0.11
RRIRFRPPRLPRPRPRPSLYPRP | -0.594
RRIRDRPPRLPRPRPRPVQRPRP | 0.121
RRIRTRPPRLPRPRPRPLKFPRP | -0.27
RRIRKRPPRLPRPRPRPTNPPRP | 0.155
RRIRGRPPRLPRPRPRPNQVPRP | 0.195
RRIRWRPPRLPRPRPRPPFRPRP | 0.632
RRIRPRPPRLPRPRPRPGNFPRP | -0.25
RRIRDRPPRLPRPRPRPIMQPRP | -0.0521
RRIRGRPPRLPRPRPRPNFPPRP | 0.193
RRIRIRPPRLPRPRPRPKACPRP | 0.0544
RRIRFRPPRLPRPRPRPDNKPRP | -0.853
RRIRPRPPRLPRPRPRPSTEPRP | -0.0218
RRIRVRPPRLPRPRPRPKFCPRP | -0.137
RRIRDRPPRLPRPRPRPLDYPRP | -0.242
RRIRNRPPRLPRPRPRPSWKPRP | 0.0635
RRIRFRPPRLPRPRPRPPEYPRP | -0.0154
RRIRFRPPRLPRPRPRPAMAPRP | 0.0902
RRIRKRPPRLPRPRPRPNLLPRP | -0.263
